These results are taken from US20040110663A1.

This assay addresses Sonic hedgehog (Shh), human, as secreted by human cancer cell lines in co-culture (human). The assay can be described thus: cell-based or functional assay.

On to Shh blocking antibody 5E1, for which the inhibition of luciferase expression in S12 cells (gli-Luc assay, S12/RT-4 co-cultures) worked out at 85 ng/mL and the inhibition of luciferase expression in S12 cells (gli-Luc assay, S12/RT-4 co-cultures), IC90 was found to be 0.5 mg/L.
